The text below walks through data of patent publication US8290713 (LONZA BIOLOGICS, dated 2012).

This assay has as its target α-synuclein (UniProt P37840 1-140). Briefly: cell-based or functional assay.

Non-standard residues stand in square brackets, D forms with d.
Also: test concentration or dose not given here.

B1: ZP-0161 (peptide)
peptide: Ac-[dH][dH][dV][dK][dV][dA]-NH2
SMILES: CC(=O)N[C@H](Cc1c[nH]cn1)C(=O)N[C@H](Cc1c[nH]cn1)C(=O)N[C@@H](C(=O)N[C@H](CCCCN)C(=O)N[C@@H](C(=O)N[C@H](C)C(N)=O)C(C)C)C(C)C
Take B1: the “% decrease in ThT fluorescence” value was -5.9%, the “% decrease in rate of aggregation” value was 2.3% and the “% increase in Lag phase” value was 19.7%.

B2: ZP-0172 (peptide)
peptide: Ac-[dH][dH][dV][dI][dV][dW]-NH2
SMILES: CC[C@@H](C)[C@@H](NC(=O)[C@H](NC(=O)[C@@H](Cc1c[nH]cn1)NC(=O)[C@@H](Cc1c[nH]cn1)NC(C)=O)C(C)C)C(=O)N[C@@H](C(=O)N[C@H](Cc1c[nH]c2ccccc12)C(N)=O)C(C)C
For B2, the “% decrease in ThT fluorescence” value is -1.7%, the “% decrease in rate of aggregation” value was found to be 6.9% and the “% increase in Lag phase” value was 28.1%.

B3: ZP-0169 (peptide)
peptide: Ac-[dH][dH][dV][dI][dV][dV]-NH2
SMILES: CC[C@@H](C)[C@@H](NC(=O)[C@H](NC(=O)[C@@H](Cc1c[nH]cn1)NC(=O)[C@@H](Cc1c[nH]cn1)NC(C)=O)C(C)C)C(=O)N[C@@H](C(=O)N[C@@H](C(N)=O)C(C)C)C(C)C
For the molecule B3, the “% decrease in ThT fluorescence” value is -0.5%, the “% decrease in rate of aggregation” value is -13.3% and the “% increase in Lag phase” value worked out at 26.1%.

B4: ZP-0168 (peptide)
peptide: Ac-[dH][dH][dV][dI][dV][dP]-NH2
SMILES: CC[C@@H](C)[C@@H](NC(=O)[C@H](NC(=O)[C@@H](Cc1c[nH]cn1)NC(=O)[C@@H](Cc1c[nH]cn1)NC(C)=O)C(C)C)C(=O)N[C@@H](C(=O)N1CCC[C@@H]1C(N)=O)C(C)C
As to B4, the “% decrease in ThT fluorescence” value is -8.6%, the “% decrease in rate of aggregation” value was -5.4% and the “% increase in Lag phase” value was 29.8%.

B5: ZP-0171 (peptide)
peptide: Ac-[dH][dH][dV][dI][dV][dY]-NH2
SMILES: CC[C@@H](C)[C@@H](NC(=O)[C@H](NC(=O)[C@@H](Cc1c[nH]cn1)NC(=O)[C@@H](Cc1c[nH]cn1)NC(C)=O)C(C)C)C(=O)N[C@@H](C(=O)N[C@H](Cc1ccc(O)cc1)C(N)=O)C(C)C
B5: the “% decrease in ThT fluorescence” value came out at 13.9%, the “% decrease in rate of aggregation” value turned out to be 13.2% and the “% increase in Lag phase” value turned out to be 43.6%.

B6: ZP-0162 (peptide)
peptide: Ac-[dH][dH][dV][dE][dV][dA]-NH2
SMILES: CC(=O)N[C@H](Cc1c[nH]cn1)C(=O)N[C@H](Cc1c[nH]cn1)C(=O)N[C@@H](C(=O)N[C@H](CCC(=O)O)C(=O)N[C@@H](C(=O)N[C@H](C)C(N)=O)C(C)C)C(C)C
On to B6, for which the “% decrease in ThT fluorescence” value worked out at 6.3%, the “% decrease in rate of aggregation” value came to 6.6% and the “% increase in Lag phase” value came out at 33.4%.

B7: ZP-0158 (peptide)
peptide: Ac-[dH][dH][dV][dI][dV][dA]-NH2
SMILES: CC[C@@H](C)[C@@H](NC(=O)[C@H](NC(=O)[C@@H](Cc1c[nH]cn1)NC(=O)[C@@H](Cc1c[nH]cn1)NC(C)=O)C(C)C)C(=O)N[C@@H](C(=O)N[C@H](C)C(N)=O)C(C)C
In the case of B7, the “% decrease in ThT fluorescence” value amounted to 15.1%, the “% decrease in rate of aggregation” value was 18.4% and the “% increase in Lag phase” value is 32.5%.

B8: ZP-0170 (peptide)
peptide: Ac-[dH][dH][dV][dI][dV][dT]-NH2
SMILES: CC[C@@H](C)[C@@H](NC(=O)[C@H](NC(=O)[C@@H](Cc1c[nH]cn1)NC(=O)[C@@H](Cc1c[nH]cn1)NC(C)=O)C(C)C)C(=O)N[C@@H](C(=O)N[C@@H](C(N)=O)[C@H](C)O)C(C)C
For B8, the “% decrease in ThT fluorescence” value came out at 24.5%, the “% decrease in rate of aggregation” value amounted to 29.3% and the “% increase in Lag phase” value was found to be 29.4%.
